B1: c-Myc region 1-108: LexA hybrid construct of c-Myc N-terminal region 1–108 with 9aaTAD (protein, UniProt P01106 1-108, looked up, fragment)
chain: MDFFRVVENQQPPATMPLNVSFTNRNYDLDYDSVQPYFYCDEEENFYQQQQQSELQPPAPSEDIWKKFELLPTPPLSPSRRSGLCSPSYVAVTPFSLRGDNDGGGGSF
modifications: LexA fusion
notes: LexA hybrid construct of c-Myc N-terminal region 1–108 with 9aaTAD
B2: c-Myc region 1-103: LexA hybrid construct of c-Myc N-terminal region 1–103 without 9aaTAD (protein, UniProt P01106 1-103, looked up, fragment)
chain: MDFFRVVENQQPPATMPLNVSFTNRNYDLDYDSVQPYFYCDEEENFYQQQQQSELQPPAPSEDIWKKFELLPTPPLSPSRRSGLCSPSYVAVTPFSLRGDNDG
modifications: LexA fusion
notes: LexA hybrid construct of c-Myc N-terminal region 1–103 without 9aaTAD

Test system: lacZ reporter driven by the lexA operator
Experiment: One hybrid transactivation (β-galactosidase reporter) assay with LexA hybrids in yeast strain L40
Format: cell-based, Saccharomyces cerevisiae
Details: for ß-Gal: raw β-galactosidase activity; for Reporter activation (average value in %): β-galactosidase activity of LexA hybrid, % of positive control p53 construct 6p53 set to 100%, mean ± SD, n = 3; for normalized value in %: β-galactosidase, % of 6p53 mean
[1] = replicate 1 (first sample of the construct)
[2] = replicate 2 (second sample of the construct)
[3] = replicate 3 (third sample of the construct)

Molecule | activation function (times) (one hybrid assay, presence versus absence of 9aaTAD (region 100–108) in the construct) | ß-Gal [1] | ß-Gal [2] | ß-Gal [3] | Reporter activation (average value in %) [%] | normalized value in % [1] [%] | normalized value in % [2] [%] | normalized value in % [3] [%]
B1 | 5 | 136 | 123 | 139 | 49 | 50 | 45 | 51
B2 | – | 25 | 24 | 27 | 9 | 9 | 9 | 10

Reference: article PMC11558822, “Myc 9aaTAD activation domain binds to mediator of transcription with superior high affinity” (Molecular Medicine, 2024)
